The source of these data is US20030119733A1, “Compositions and methods for inhibiting hepatocyte invasion by malarial sporozoites” (New York University, priority 1992, published 2003).

The nature of assay [1]: Solid phase binding assay, analogues of sulfatide and cholesterol-3-sulfate. Particulars: dried into microtiter wells. As for the experimental part: Solid phase binding assays: Thirty μl of lipids or steroids dissolved in methanol (20-250 μg/ml) were dried into wells of microassay plates (Cat.# 3911—Falcon—Oxnard, Calif.). The plates were then blocked with 1% BSA/PBS pH 7.4 (BSA/PBS) for 30 minutes. Wells were incubated with recombinant protein (or with parasite extract) in PBS/BSA for 1 hour, washed 3 times with BSA/PBS, incubated for 1 hour with monoclonal antibodies 2F2 or 2A10 in BSA/PBS, washed 3 times, and then incubated with (10^5 cpm/well) ^125I protein A (Amersham Corp., Arlington Hts., Ill.). In the case of the P. berghei CS protein, wells were incubated with ^125I labelled mAb 3D11. Wells were washed again and the bound radioactive protein was counted in an LKB gamma-counter (model #1260, Pharmacia, Inc., Gaithersburg, Md.). For inhibition assays, the recombinant proteins were mixed with dilutions of the various polymers in BSA/PBS, the mixture was loaded into the wells of the microtiter plates, and the binding assay performed as above. See also, Roberts, et al. J. Biol. Chem. 260:9405-9411, 1985.
1.4 nmol of sulfatide (open squares), cholesterol-3-sulfate (closed triangles), galactocerebroside I (closed circles), galactocerebroside II (open circles) and cholesterol (open triangles) were evaporated into microtiter wells and then incubated with serial dilutions of Vivax-2. […]

Another assay has as its system rat liver sections. Nature of the assay: Staining of frozen tissue sections with recombinant CS polypeptides. Format: binding. The note with it: revealed with MAb 2A10, fluorescence; CS27IVC 50-5 μg/ml, Falciparum-2 25 μg/ml, Falciparum-1 up to 250 μg/ml. Here is the method:
The procedure was carried out essentially as described by Dukor P. et al., Proc. Natl. Acad. Sci. USA 67:991-997, 1970 and Imai Y. et al., J. Cell. Biol. 111:1225-1232, 1990. Rats were euthanized with CO2. Small pieces of the liver, spleen, heart, brain and lung were removed, snap frozen in liquid nitrogen, embedded in Tissue Tek O.C.T. (Miles, Inc., Naperville, Ill.), and cut into 5 μm sections. Sections were dried for 30 min., fixed for 10 min. in 4% paraformaldehyde, rinsed three times with phosphate-buffered saline (PBS), and either used immediately or stored at 4° C. in 1% BSA, 0.5% Tween, PBS (BSA/TPBS). After blocking with 100 mM glycine (pH 7.2) and with BSA/TPBS, the sections were sequentially incubated at 37° C. with recombinant proteins for 1 hr, 10 μg/ml MAb 2A10 for 45 min., and rat anti-mouse immunoglobulin conjugated to fluorescein isothiocyanate (Boehringer Mannheim, Indianapolis, Ind.) for 45 min. The slides were counterstained for 10 min. with 0.3% Evans blue, rinsed extensively in PBS, and finally observed under a fluorescence microscope. For peptide inhibition experiments, the sections were first incubated with the peptide at various concentrations in BSA/TPBS for 1 hour at 37° C., washed six times with BSA/TPBS, and then stained with 2.5 μg/ml CS recombinant protein as described above. In a few experiments, the tissues were fixed for 10 min. with methanol, acetone, or 4% paraformaldehyde containing 0.5% glutaraldehyde.
Frozen sections of various rat organs were incubated with recombinant CS27IVC polypeptide. […] The staining closely followed the sinusoidal spaces of the hepatic lobules, indicating CS binding to the hepatocyte membrane. Other areas of the liver sections and sections of other organs (spleen, lung, heart or brain) were not stained. Control sections (incubated with CS27IVC in the absence of antibody or vice versa) were not stained either.
To define the region of the CS that mediates the perisinusoidal staining various other recombinant constructs were also used in the frozen section assay.

A further assay relates to liver membranes. Nature of the assay: Binding activity of aggregated and monomeric FPLC fractions. Particulars: aggregated form. As for the experimental part:
To separate monomers from multimers of recombinant CS, the preparations were subjected to molecular sieving chromatography on an FPLC apparatus (Pharmacia, Piscataway, N.J.). One hundred micrograms of CS27IVC in a phosphate buffer containing 150 mM NaCl (pH 7.2) was injected into a Superose 12 sizing column (Pharmacia). The protein was eluted in the same buffer using a flow rate of 0.2 ml/min. A high molecular weight fraction ([…]) co-eluted with thyroglobulin. The monomeric form of the protein eluted between amylase (molecular weight=200 kDa) and BSA (molecular weight=66kDa).
The methods described by Lambert, J. M. et al., Biochemistry 17:5406-5416, 1978 were followed. Falciparum-1 at a concentration of 1 mg/ml was incubated with 250 mM Traut's reagent (Pierce Chemical Co., Rockford, Ill.) in 50 mM triethylamine-hydrochloric acid (TEA-HCl) (pH 8.0), 1 mM Mg(Ac)2, and 50 mM KCl for 20 min. on ice. Traut's reagent (0.5 M stock) was prepared immediately before use in a solution containing equal volumes of 1 M TEA-HCl and 1 M TEA-free base. The sulfhydryl-containing falciparum-1 was oxidized in ambient air at 4° C. overnight. The presence of aggregated disulfide-linked falciparum-1 was confirmed both by chromatography in an FPLC sizing column and by Western blotting as described above.
The gold conjugates employed in the foregoing liver section experiments contained no aggregates. […]

B1: Falciparum-2: fragment of P. falciparum CS protein with repeats and Region II+ (residues 43-391) (protein)
chain: AGTNLYNELEMNYYGKQENWYSLKKNSRSLGENDDGNNNNGDNGREGKDEDKRDGNNEDNEKLRKPKHKKLKQPGDGNPDPNANPNVDPNANPNVDPNANPNVDPNANPNANPNANPNANPNANPNANPNANPNANPNANPNANPNANPNANPNANPNANPNANPNVDPNANPNANPNANPNANPNANPNANPNANPNANPNANPNANPNANPNANPNANPNANPNANPNANPNANPNANPNANPNKNNQGNGQGHNMPNDPNRNVDENANANNAVKNNNNEEPSDKHIEQYLKKIKNSISTEWSPCSVTCGNGIQVRIKPGSANKPKDELDYENDIEKKICKMEKCSS
Take B1: the “binding to analogues (gangliosides, galactocerebrosides I and II, cholesterol, other steroids)” value in assay [1] is “not”. The “binding (staining) to frozen liver sections” value in the assay on rat liver sections is on record as “bound to the liver sections”.

B2: Falciparum-1: Same as Falciparum-2 minus most of Region II+ (P. falciparum residues 43-348) (protein)
chain: AGTNLYNELEMNYYGKQENWYSLKKNSRSLGENDDGNNNNGDNGREGKDEDKRDGNNEDNEKLRKPKHKKLKQPGDGNPDPNANPNVDPNANPNVDPNANPNVDPNANPNANPNANPNANPNANPNANPNANPNANPNANPNANPNANPNANPNANPNANPNANPNVDPNANPNANPNANPNANPNANPNANPNANPNANPNANPNANPNANPNANPNANPNANPNANPNANPNANPNANPNANPNKNNQGNGQGHNMPNDPNRNVDENANANNAVKNNNNEEPSDKHIEQYLKKIKNSISTEWSP
With B2, the binding activity result with liver membranes is “inactive”. For the same molecule, in the assay with rat liver sections, the “binding (staining) to frozen liver sections” value is given as “did not bind”.
